“Also recorded” adds a separate entry of the source.
T1: Mer (rhMer-Fc chimera) (Homo sapiens, UniProt Q12866)
T1 construct: Soluble recombinant antigens corresponding to the extracellular domains of members of the human TAM receptor family; purchased R&D Systems 891-MR
T1 sequence (Q12866 21-505 limits assumed): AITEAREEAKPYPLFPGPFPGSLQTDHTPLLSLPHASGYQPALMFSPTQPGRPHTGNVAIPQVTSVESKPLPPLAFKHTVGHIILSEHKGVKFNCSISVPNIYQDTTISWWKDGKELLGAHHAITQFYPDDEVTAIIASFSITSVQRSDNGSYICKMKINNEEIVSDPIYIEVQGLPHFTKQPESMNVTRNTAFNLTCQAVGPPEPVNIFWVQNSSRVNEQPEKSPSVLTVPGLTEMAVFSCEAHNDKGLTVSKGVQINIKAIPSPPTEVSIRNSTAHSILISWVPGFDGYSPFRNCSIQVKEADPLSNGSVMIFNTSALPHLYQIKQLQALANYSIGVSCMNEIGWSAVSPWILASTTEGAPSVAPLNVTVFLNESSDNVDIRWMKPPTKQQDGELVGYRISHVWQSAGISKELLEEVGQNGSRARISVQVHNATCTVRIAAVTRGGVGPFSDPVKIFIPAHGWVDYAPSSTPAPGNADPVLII


Assays:
Mer (rhMer-Fc chimera) = molecular target: T1, Mer (rhMer-Fc chimera); assay: Biacore binding analysis on immobilized human Mer; conditions: 10 μg/mL, 25° C.
Protocol: All binding experiments were performed using Biacore 3000 instrument (GE Healthcare) at 25° C. Soluble recombinant antigens corresponding to the extracellular domains of members of the human TAM receptor family, Axl (rhAxl-Fc chimera; R&D Systems, Cat. no. 154-AL), Mer (rhMer-Fc chimera; R&D Systems, Cat. no. 891-MR) and Tyro3 (rhTyro3/Dtk-Fc chimera; R&D Systems, Cat. no. 859-DK) were immobilized on the surface of CM5 sensor chip using amine coupling at the surface density of 393.0, 303.6 and 364.0 resonance units (RU), respectively. The Biacore run was performed in an automatic mode using Binding analysis wizard. Samples containing either MAb 10C9 or MAb 10G5 at concentration 10 μg/mL in HBS-EP buffer (GE Healthcare) were injected over the surfaces with immobilized antigens at flow rate of 30 μL/min for 3 min (association) followed by 5 min dissociation.

rhAxl-Fc = molecular target: T2, rhAxl-Fc (Homo sapiens, UniProt P30530); assay: Biacore competitive binding study on rhAxl-Fc (two sample injection); conditions: for competition for Axl binding with control antibody MAB154 / inhibition of Gas6 binding to Axl: rhAxl saturated with antibody; for competition for Axl binding with control antibody MAB154: then MAB154 at 25 μg/mL; for inhibition of Gas6 binding to Axl: then rhGas6 or rmGas6 at 25 μg/mL; for blocking of binding of the other antibody (10C9 / 10G5) to Axl: rhAxl saturated with first antibody, second antibody at 25 μg/mL
T2 construct: Soluble recombinant antigens corresponding to the extracellular domains of members of the human TAM receptor family; purchased R&D Systems 154-AL
Protocol: A competitive binding study was performed using Biacore 3000 instrument (GE Healthcare) and Binding Analysis wizard with several cycles of two samples injection. As a first sample, a saturating concentration of MAb 10C9 (790 nM or 120 μg/mL) or 10G5 (160 nM or 24 μg/mL) was injected over the surface of a CM5 sensor chip coated with rhAxl-Fc (using amine coupling) for 3 min at flow rate of 30 μL/min followed by 2.5 min stabilization (HBS-EP buffer alone) before the injection of the second sample. The following second samples were used: recombinant human (rh) Gas6 (R&D Systems, Cat. no. 885-GS), recombinant mouse (rm) Gas6 (R&D Systems, Cat. no. 986-GS/CF) and a panel of anti-Axl antibodies, such as MAB154 (R&D Systems, Cat. no. MAB154), 10C9 and 10G5; all at concentration 25 μg/mL. The second sample was injected for 3 min, followed by 2.5 min stabilization (buffer alone) and regeneration of the surface by 30 sec injection of a regeneration solution (10 mM HCl, 1 M NaCl) at flow rate 50 μL/min.

[1] = molecular target: T3, mouse Axl (rmAxl-Fc chimera) (Mus musculus, UniProt Q00993); assay: Biacore binding analysis on immobilized mouse Axl; conditions: 10 μg/mL, 25° C.
T3 construct: The soluble recombinant antigens corresponding to human Axl (rhAxl-Fc chimera; R&D Systems, Cat. no; 154-AL), mouse Axl (rmAxl-Fc chimera; purchased R&D Systems 854-AX
Protocol: The binding experiments were performed using Biacore 3000 instrument (GE Healthcare) at 25° C. The soluble recombinant antigens corresponding to human Axl (rhAxl-Fc chimera; R&D Systems, Cat. no. 154-AL), mouse Axl (rmAxl-Fc chimera; R&D Systems, R&D Systems; Cat. no. 854-AX) and human Tyro3 (rhTyro3/Dtk-Fc chimera; R&D Systems, Cat. no. 859-DK) were immobilized on the surface of CM5 sensor chip using amine coupling at the surface density of 1,308.0, 2,115.9 and 1,429.0 RU, respectively. The Biacore runs were performed in an automatic mode using Binding analysis wizard.
The sample containing either MAb 10C9, MAb 10G5 or recombinant mouse (rm) Axl-ligand Gas6 (R&D Systems, Cat. no. 986-GS/CF) at concentration 10 μg/mL in HBS-EP buffer (GE Healthcare) was injected over the surfaces with immobilized antigens at flow rate of 30 μL/min for 3 min (association) followed by 5 min dissociation.

Axl^+ cells = assay: Flow cytometry binding of hybridoma antibody clones to Axl+ cells; assay type: cell-based; conditions: hybridoma clone selection
Protocol: For flow cytometry, the adherent cells in culture were washed with PBS, detached by trypsin (0.25%) treatment for 1 min and hitting culture dish for full detachment. Trypsin was quenched by adding into the tissue flask the complete medium followed by washing the cells with PBS. During the washing steps, the cells were collected by centrifugation at 200 g for 5 min. The antibody was diluted for total concentration in PBS containing 0.02% bovine serum albumin (BSA).
Cell staining was performed using 200 μL of cell suspension comprising 10^5 cells for 20 min at room temperature. After two washing steps with PBS/0.02% BSA, the cells were resuspended in 200 μL incubated with an APC-conjugated donkey anti-mouse IgG (H+L) secondary antibody (Jackson Laboratories, Cat. no. 715-136-150) at concentration 2 μg/mL for 20 min at room temperature. The stained cells were washed twice with PBS/0.02% BSA and kept on ice before analysis using a BD LSR Fortessa cell analyzer (BD Biosciences).

T3 sequence (Q00993 19-445 limits assumed, change not shown): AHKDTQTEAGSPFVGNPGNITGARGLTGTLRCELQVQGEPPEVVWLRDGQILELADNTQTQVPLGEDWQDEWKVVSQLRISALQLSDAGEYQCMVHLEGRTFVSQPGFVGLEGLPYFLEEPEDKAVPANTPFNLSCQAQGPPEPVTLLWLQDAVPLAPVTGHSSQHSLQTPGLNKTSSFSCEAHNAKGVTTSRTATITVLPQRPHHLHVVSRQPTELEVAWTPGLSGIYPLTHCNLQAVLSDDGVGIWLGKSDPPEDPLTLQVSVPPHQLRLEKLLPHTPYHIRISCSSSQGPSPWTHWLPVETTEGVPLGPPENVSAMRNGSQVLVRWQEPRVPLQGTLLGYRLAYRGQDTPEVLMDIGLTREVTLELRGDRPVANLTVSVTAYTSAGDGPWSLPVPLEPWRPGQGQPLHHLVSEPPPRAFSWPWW

| binding to human Mer (Mer (rhMer-Fc chimera)) | binding to mouse Axl [1] | binding to human Mer (Mer (rhMer-Fc chimera); listed as 1009) | Molecule | competition for Axl binding with control antibody MAB154 (rhAxl-Fc) | inhibition of Gas6 binding to Axl (rhAxl-Fc) | blocking of binding of the other antibody (10C9 / 10G5) to Axl (rhAxl-Fc) | binding to Axl^+ cells in flow cytometry (Axl^+ cells) |
| --- | --- | --- | --- | --- | --- | --- | --- |
| no significant binding | no binding |  | 10G5: mouse anti-Axl monoclonal antibody from hybridoma WR-10G5-E5, IgG1; VH SEQ ID NO: 21, VL SEQ ID NO: 22 (antibody, listed as Mus musculus, V domains shown) VH: QVQLQQSGAELVRPGASVKLSCKASGYSFTDFYINWVRQRPGQGLEWIARIFPGGDNTYYNEKFKGKATLTAEESSSTAYIQLSSLTSEDSAVYFCARRGLYYAMDYWGQGISVTVSS VL: DVLMTQTPLSLPVSLGDQASISCRSSQSLVHSNGIPYLHWYLQKPGQSPKLLIYRVSNRFSGVPDRFSGSGSGTDFTLKISRVEAEDLGVYFCSQGTHVPPTFGGGTKLEIK | did not compete | inhibit the binding of Axl to its ligand Gas6; also recorded: inhibited Axl binding by its ligand Gas6 | blocked binding of each other | specific binding |
| no binding | no binding | no significant binding | 10C9: mouse anti-Axl monoclonal antibody from hybridoma UT-10C9-B9, IgG2b; VH SEQ ID NO: 3, VL SEQ ID NO: 4 (antibody, listed as Mus musculus, V domains shown) VH: QVQLQQPGPELVKPGASVKISCKTSDYNFTRYYIHWVKQRPGQGLEWIGWIYPGTGDSKYNEKFKGRATLTADTSSSTAYMQLSSQTSEDSAVYFCARNGNYWYFDVWGAGTAVTVSS VL: DIVMTQAAPSGPVTPGESVSISCRSSKSLLHSNGNTYLYWFLQRPGQSPQLLIYRMSNLASGVPDRFSGSGSGTAFTLRISRVEAEDVGIYYCMQHREYPFTFGGGTKLEIK | did no inhibit; also recorded: did not compete | inhibit the binding of Axl to its ligand Gas6; also recorded: cannot be bound; also recorded: inhibited Axl binding by its ligand Gas6 | cannot be bound; also recorded: blocked binding of each other | specific binding |

Source: US10208121B2, “Anti-Axl antagonistic antibodies” (BERGEN TEKNOLOGIOVERFORING AS, priority 2014, dated 2019)
